Data reported in US20160053025A1 (SAMSUNG ELECTRONICS, published 2016).

T1: recombinant hAng-2 (C-His, R&D Systems) (human, UniProt O15123 19-496)
T1 construct: Bought protein; also called human Ang-2 protein; C-terminal histidine-tagged human Ang2 (R&D Systems); not shown: C-terminal His tag
T1 sequence: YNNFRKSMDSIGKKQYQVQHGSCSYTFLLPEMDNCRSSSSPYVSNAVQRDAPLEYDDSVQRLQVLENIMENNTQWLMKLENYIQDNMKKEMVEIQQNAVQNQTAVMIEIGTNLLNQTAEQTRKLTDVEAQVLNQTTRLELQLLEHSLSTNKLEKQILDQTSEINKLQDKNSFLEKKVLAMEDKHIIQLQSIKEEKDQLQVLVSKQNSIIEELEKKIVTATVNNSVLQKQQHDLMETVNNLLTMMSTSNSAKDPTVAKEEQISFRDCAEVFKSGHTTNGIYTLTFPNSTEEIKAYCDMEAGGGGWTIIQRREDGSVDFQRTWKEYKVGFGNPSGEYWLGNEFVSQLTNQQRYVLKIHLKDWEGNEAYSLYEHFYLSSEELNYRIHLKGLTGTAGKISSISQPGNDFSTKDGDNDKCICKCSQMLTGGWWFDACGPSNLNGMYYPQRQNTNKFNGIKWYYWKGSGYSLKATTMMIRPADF


Target: T1, recombinant hAng-2 (C-His, R&D Systems)
Assay: SPR, BIAcore T100; hAng2 (C-His) captured by anti-His antibody on CM5, antibody as analyte
Description: The binding affinity (KD values) of the antibodies to human Ang2 protein was measured by an SPR method using a BIAcore T100 (GE Healthcare). 25 μg/ml anti-His antibody was immobilized on a CM5 sensor chip (GE healthcare) using a pH 5.0 acetate solution and an amine coupling kit (GE Healthcare). 6 μg/ml of a recombinant hAng2 (C-His, R&D Systems) protein was flowed onto the chip to be captured at 100 to 200 RU levels.

Binder	Kd [nM]	koff [s⁻¹]	kon [M⁻¹ s⁻¹]
h10D6-OPTI-1 (antibody, human IgG1, V domains shown) VH: QVQLQESGPGLVKPSETLSLTCAVSGYSITSDYAWNWIRQPPGKGLEWMGKISYSGKTDYNPSLKSRSTISRDTSKNQFSLKLSSVTAADTAVYYCARGNFEGAMDYWGQGTLVTVSS VL: DIQMTQSPSSLSASVGDRVTITCKASQSVSNDVAWYQQKPGKAPKLLIYYASNRYPGVPSRFSGSGSGTDFTLTISSLQPEDFATYYCQQDYSSPWTFGQGTKLEIK	0.68	0.000321	474000
h10D6-OPTI-3 (antibody, human IgG1, V domains shown) VH: EVQLVESGGGLVQPGGSLRLSCAASGYSITSDYAWNWVRQAPGKGLEWMGKISYSGKTDYNPSLKSRSTISRDTSKNTFYLQMNSLRAEDTAVYYCARGNFEGAMDYWGQGTLVTVSS VL: DIQMTQSPSSLSASVGDRVTITCKASQSVSNDVAWYQQKPGKAPKLLIYYASNRYPGVPSRFSGSGSGTDFTLTISSLQPEDFATYYCQQDYSSPWTFGQGTKLEIK	0.49	0.000307	624000
h10D6-OPTI-16 (antibody, human IgG1, V domains shown) VH: EVQLVESGGGLVQPGGSLRLSCAASGYSITSDYAWNWVRQAPGKGLEWMGKISYSGKTDYNPSLKSRSTISRDTSKNTFYLQMNSLRAEDTAVYYCARGNFEGAMDYWGQGTLVTVSS VL: DIQMTQSPSSLSASVGDRVTITCKASQSVSNDVHWYQQKPGKAPKLLIYYASNRYPGVPSRFSGSGSGTDFTLTISSLQPEDFATYYCQQDYSSPWTFGQGTKLEIK	0.92	0.000443	479000
h10D6-OPTI-4 (antibody, human IgG1, V domains shown) VH: EVQLVESGGGLVQPGGSLRLSCAASGYSITSDYAWNWVRQAPGKGLEWMGKINYAGNTDYNPSLKSRSTISRDTSKNTFYLQMNSLRAEDTAVYYCARGNFEGAMDYWGQGTLVTVSS VL: DIQMTQSPSSLSASVGDRVTITCKASQSVSNDVAWYQQKPGKAPKLLIYYASNRYPGVPSRFSGSGSGTDFTLTISSLQPEDFATYYCQQDYSSPWTFGQGTKLEIK	0.33	0.000246	736000
h10D6-OPTI-2 (antibody, human IgG1, V domains shown) VH: QVQLQESGPGLVKPSETLSLTCAVSGYSITSDYAWNWIRQPPGKGLEWMGKINYAGNTDYNPSLKSRSTISRDTSKNQFSLKLSSVTAADTAVYYCARGNFEGAMDYWGQGTLVTVSS VL: DIQMTQSPSSLSASVGDRVTITCKASQSVSNDVAWYQQKPGKAPKLLIYYASNRYPGVPSRFSGSGSGTDFTLTISSLQPEDFATYYCQQDYSSPWTFGQGTKLEIK	0.34	0.000149	424000
10D6-HU5 (antibody, V domains shown, Humanized antibody; also called humanized antibody 10D6-HU5) VH: QVQLQESGPGLVKPSETLSLTCAVSGYSITSDYAWNWIRQPPGKGLEWIGYINYSGNTDYNPSLKSRVTISVDTSKNQFSLKLSSVTAADTAVYYCARGNFEGAMDYWGQGTLVTVSS VL: DIQMTQSPSSLSASVGDRVTITCKASQSVSNDVAWYQQKPGKAPKLLIYYASNRYPGVPSRFSGSGSGTDFTLTISSLQPEDFATYYCQQDYSSPWTFGQGTKLEIK	64	0.00312	48600
10D6-HU1 (antibody, V domains shown, Humanized antibody; also called humanized antibody 10D6-HU1) VH: QVQLQESGPGLVKPSETLSLTCAVSGYSISSDYAWNWIRQPPGKGLEWIGYINYSGNTDYNPSLKSRVTISVDTSKNQFSLKLSSVTAADTAVYYCARGNFEGAMDYWGQGTLVTVSS VL: DIQMTQSPSSLSASVGDRVTITCKASQSVSNDVAWYQQKPGKAPKLLIYYASNRYPGVPSRFSGSGSGTDFTLTISSLQPEDFATYYCQQDYSSPWTFGQGTKLEIK	84	0.0026	30800
h10D6-OPTI-17 (antibody, human IgG1, V domains shown) VH: EVQLVESGGGLVQPGGSLRLSCAASGYSITSDYAWNWVRQAPGKGLEWMGKINYAGNTDYNPSLKSRSTISRDTSKNTFYLQMNSLRAEDTAVYYCARGNFEGAMDYWGQGTLVTVSS VL: DIQMTQSPSSLSASVGDRVTITCKASQSVSNDVHWYQQKPGKAPKLLIYYASNRYPGVPSRFSGSGSGTDFTLTISSLQPEDFATYYCQQDYSSPWTFGQGTKLEIK	0.76	0.00035	460000
10D6-HU3 (antibody, V domains shown, Humanized antibody; also called humanized antibody 10D6-HU3) VH: EVQLVESGGGLVQPGGSLRLSCAASGYSITSDYAWNWVRQAPGKGLEWMGYINYSGNTDYNPSLKSRSTISRDTSKNTFYLQMNSLRAEDTAVYYCARGNFEGAMDYWGQGTLVTVSS VL: DIQMTQSPSSLSASVGDRVTITCKASQSVSNDVAWYQQKPGKAPKLLIYYASNRYPGVPSRFSGSGSGTDFTLTISSLQPEDFATYYCQQDYSSPWTFGQGTKLEIK	43	0.00194	45000
h10D6-OPTI-42 (antibody, human IgG1, V domains shown) VH: QVQLQESGPGLVKPSETLSLTCAVSGYSITSDYAWNWIRQPPGKGLEWIGYINYSGNTDYNPSLKSRVTISVDTSKNQFSLKLSSVTAADTAVYYCARGNFEGAMDYWGQGTLVTVSS VL: DIQMTQSPSSLSASVGDRVTITCKASQSVSNDVHWYQQKPGKAPKLLIYYASNRYPGVPSRFSGSGSGTDFTLTISSLQPEDFATYYCQHDYSSPFTFGQGTKLEIK	0.85	0.000286	336000
10D6-HU2 (antibody, V domains shown, Humanized antibody; also called humanized antibody 10D6-HU2) VH: QVQLQESGPGLVKPSETLSLTCAVSGYSITSDYAWNWIRQPPGKGLEWMGYINYSGNTDYNPSLKSRSTISRDTSKNQFSLKLSSVTAADTAVYYCARGNFEGAMDYWGQGTLVTVSS VL: DIQMTQSPSSLSASVGDRVTITCKASQSVSNDVAWYQQKPGKAPKLLIYYASNRYPGVPSRFSGSGSGTDFTLTISSLQPEDFATYYCQQDYSSPWTFGQGTKLEIK	47	0.00346	73000

More lines, now with the values ahead:

Kd [nM]	koff [s⁻¹]	kon [M⁻¹ s⁻¹]	Binder
0.38	0.000576	1.53e+06	h10D6-OPTI-43 (antibody, human IgG1, V domains shown) VH: QVQLQESGPGLVKPSETLSLTCAVSGYSITSDYAWNWIRQPPGKGLEWMGKISYSGKTDYNPSLKSRSTISRDTSKNQFSLKLSSVTAADTAVYYCARGNFEGAMDYWGQGTLVTVSS VL: DIQMTQSPSSLSASVGDRVTITCKASQSVSNDVHWYQQKPGKAPKLLIYYASNRYPGVPSRFSGSGSGTDFTLTISSLQPEDFATYYCQQDYSSPWTFGQGTKLEIK
–	2.25e-05	–	h10D6-OPTI-65 (antibody, human IgG1, V domains shown) VH: QVQLQESGPGLVKPSETLSLTCAVSGYSITSDYAWNWIRQPPGKGLEWMGKISYSGKTDYNPSLKSRSTISRDTSKNQFSLKLSSVTAADTAVYYCARGNFEGAMDYWGQGTLVTVSS VL: DIQMTQSPSSLSASVGDRVTITCKASQSVSNDVAWYQQKPGKAPKLLIYYASIPYPGVPSRFSGSGSGTDFTLTISSLQPEDFATYYCQQDYSSPWTFGQGTKLEIK
0.000129	2.68e-07	2.08e+06	h10D6-OPTI-67 (antibody, human IgG1, V domains shown) VH: QVQLQESGPGLVKPSETLSLTCAVSGYSITSDYAWNWIRQPPGKGLEWMGKISYSGKTDYNPSLKSRSTISRDTSKNQFSLKLSSVTAADTAVYYCARGNFEGAMDYWGQGTLVTVSS VL: DIQMTQSPSSLSASVGDRVTITCKASQSVSNDVHWYQQKPGKAPKLLIYYASIPYPGVPSRFSGSGSGTDFTLTISSLQPEDFATYYCQQDYSSPWTFGQGTKLEIK
0.437	0.000116	265000	h10D6-OPTI-70 (antibody, human IgG1, V domains shown) VH: EVQLVESGGGLVQPGGSLRLSCAASGYSITSDYAWNWVRQAPGKGLEWMGKISYSGKTDYNPSLKSRSTISRDTSKNTFYLQMNSLRAEDTAVYYCARGNFEGAMDYWGQGTLVTVSS VL: DIQMTQSPSSLSASVGDRVTITCKASQSVSNDVAWYQQKPGKAPKLLIYYASIPYPGVPSRFSGSGSGTDFTLTISSLQPEDFATYYCQQDYSSPWTFGQGTKLEIK
0.0277	7.42e-05	2.68e+06	h10D6-OPTI-63 (antibody, human IgG1, V domains shown) VH: QVQLQESGPGLVKPSETLSLTCAVSGYSITSDYAWNWIRQPPGKGLEWMGKISYSGKTDYNPSLKSRSTISRDTSKNQFSLKLSSVTAADTAVYYCARGNFEGAMDYWGQGTLVTVSS VL: DIQMTQSPSSLSASVGDRVTITCKASQFVSTDVHWYQQKPGKAPKLLIYYASNRYPGVPSRFSGSGSGTDFTLTISSLQPEDFATYYCQQDYSSPWTFGQGTKLEIK
0.317	0.00017	536000	h10D6-OPTI-68 (antibody, human IgG1, V domains shown) VH: EVQLVESGGGLVQPGGSLRLSCAASGYSITSDYAWNWVRQAPGKGLEWMGKISYSGKTDYNPSLKSRSTISRDTSKNTFYLQMNSLRAEDTAVYYCARGNFEGAMDYWGQGTLVTVSS VL: DIQMTQSPSSLSASVGDRVTITCKASQFVSTDVHWYQQKPGKAPKLLIYYASNRYPGVPSRFSGSGSGTDFTLTISSLQPEDFATYYCQQDYSSPWTFGQGTKLEIK
0.14	8.49e-05	621000	h10D6-OPTI-55 (antibody, human IgG1, V domains shown) VH: QVQLQESGPGLVKPSETLSLTCAVSGYSITSDYAWNWIRQPPGKGLEWMGKINYAGNTDYNPSLKSRSTISRDTSKNQFSLKLSSVTAADTAVYYCARGNFEGAMDYWGQGTLVTVSS VL: DIQMTQSPSSLSASVGDRVTITCKASQSVSNDVHWYQQKPGKAPKLLIYYASNRYPGVPSRFSGSGSGTDFTLTISSLQPEDFATYYCQQDYSSPWTFGQGTKLEIK
